# Legend:
# Test in all cases: ELISA; collagen model peptide or collagen XI coated; COMP or TSP-4 at indicated concentrations in TBS-T with 0.25% BSA, 1 h, room temperature; detected with anti-COMP or anti-TSP-4 antibody; four-parameter logistic fit; apparent KD
# [1] = biological target: … foldon collagen model peptide (valine to proline) (not stated | bacteriophage T4)
# [2] = biological target: … foldon collagen model peptide (histidine to proline) (not stated | bacteriophage T4)
# [3] = biological target: GVKGHR foldon collagen model peptide (minimal binding site) (not stated | bacteriophage T4)
# cartilage oligomeric matrix protein (COMP), wild type, pentameric, sequence (P49747 21-757): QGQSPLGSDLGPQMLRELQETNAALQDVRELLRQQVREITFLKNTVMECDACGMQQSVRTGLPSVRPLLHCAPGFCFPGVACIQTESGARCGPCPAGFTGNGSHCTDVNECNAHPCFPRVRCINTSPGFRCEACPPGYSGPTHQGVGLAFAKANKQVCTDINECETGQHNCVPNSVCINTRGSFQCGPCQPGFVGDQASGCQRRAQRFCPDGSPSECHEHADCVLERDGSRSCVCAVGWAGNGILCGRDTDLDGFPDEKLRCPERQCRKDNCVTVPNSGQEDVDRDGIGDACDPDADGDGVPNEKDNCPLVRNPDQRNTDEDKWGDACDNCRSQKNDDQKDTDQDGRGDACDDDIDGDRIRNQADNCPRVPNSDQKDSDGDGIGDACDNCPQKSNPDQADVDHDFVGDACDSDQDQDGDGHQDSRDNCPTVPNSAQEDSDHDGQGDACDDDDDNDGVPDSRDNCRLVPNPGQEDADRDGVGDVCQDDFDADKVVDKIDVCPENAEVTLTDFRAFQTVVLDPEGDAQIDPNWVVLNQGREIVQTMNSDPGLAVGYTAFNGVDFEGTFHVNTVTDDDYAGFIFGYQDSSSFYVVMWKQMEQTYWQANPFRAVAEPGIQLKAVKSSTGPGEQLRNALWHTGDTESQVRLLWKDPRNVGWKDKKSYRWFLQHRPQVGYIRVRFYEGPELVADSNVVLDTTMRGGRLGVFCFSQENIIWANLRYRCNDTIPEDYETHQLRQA
# thrombospondin-4 (TSP-4), sequence (P35443 27-961): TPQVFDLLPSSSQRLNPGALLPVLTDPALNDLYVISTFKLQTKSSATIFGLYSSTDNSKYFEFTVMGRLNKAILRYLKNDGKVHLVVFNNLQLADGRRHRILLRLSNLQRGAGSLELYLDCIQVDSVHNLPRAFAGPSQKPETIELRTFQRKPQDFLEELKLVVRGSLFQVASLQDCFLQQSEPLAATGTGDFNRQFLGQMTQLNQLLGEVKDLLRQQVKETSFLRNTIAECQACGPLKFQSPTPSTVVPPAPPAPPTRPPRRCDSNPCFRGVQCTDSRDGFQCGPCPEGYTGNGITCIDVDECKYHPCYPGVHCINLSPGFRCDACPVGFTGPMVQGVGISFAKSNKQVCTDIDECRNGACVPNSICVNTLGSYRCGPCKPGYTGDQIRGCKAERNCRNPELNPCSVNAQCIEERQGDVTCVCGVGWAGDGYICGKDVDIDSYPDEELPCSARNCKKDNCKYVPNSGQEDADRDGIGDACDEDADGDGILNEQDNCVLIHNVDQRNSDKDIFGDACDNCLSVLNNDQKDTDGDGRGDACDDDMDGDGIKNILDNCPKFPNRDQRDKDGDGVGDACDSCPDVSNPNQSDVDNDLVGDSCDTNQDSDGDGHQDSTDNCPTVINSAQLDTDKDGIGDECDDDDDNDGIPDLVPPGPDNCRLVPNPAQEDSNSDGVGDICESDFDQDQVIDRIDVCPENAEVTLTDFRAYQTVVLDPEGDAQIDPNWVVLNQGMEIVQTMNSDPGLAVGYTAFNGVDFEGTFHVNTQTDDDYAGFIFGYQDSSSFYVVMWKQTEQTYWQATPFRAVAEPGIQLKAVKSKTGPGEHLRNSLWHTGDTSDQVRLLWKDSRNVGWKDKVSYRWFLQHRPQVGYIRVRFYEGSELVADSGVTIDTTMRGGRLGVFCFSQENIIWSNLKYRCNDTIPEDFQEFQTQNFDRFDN
Kd [1],Kd [2],Kd [3],Substance
2.26 nM,496 nM,1.61 nM,"cartilage oligomeric matrix protein (COMP), wild type, pentameric (from UniProt P49747 21-757) (natural protein)"
–,–,0.56 nM,thrombospondin-4 (TSP-4) (from UniProt P35443 27-961) (natural protein)

# — PMC6249252, “COMP and TSP-4 interact specifically with the novel GXKGHR motif only found in fibrillar collagens” (Scientific Reports, 2018)
